Results as given in US11692025 (UNIVERSITY COURT OF THE UNIVERSITY OF ABERDEEN, dated 2023).
Blank lines part the entries; values can stand above or below the binder they belong to.

Key:
human serum albumin [1] = molecular target: T1, human serum albumin (human, UniProt P02768 25-609); test: BIAcore, pH 7.4, monomeric 6xHis-tagged VNAR
T1 construct: also called HSA; HAS

mouse serum albumin [2] = molecular target: T2, mouse serum albumin (mouse, UniProt P07724 25-608); test: BIAcore, pH 7.4, monomeric 6xHis-tagged VNAR
T2 construct: also called MSA
T2 sequence (P07724 25-608 limits assumed): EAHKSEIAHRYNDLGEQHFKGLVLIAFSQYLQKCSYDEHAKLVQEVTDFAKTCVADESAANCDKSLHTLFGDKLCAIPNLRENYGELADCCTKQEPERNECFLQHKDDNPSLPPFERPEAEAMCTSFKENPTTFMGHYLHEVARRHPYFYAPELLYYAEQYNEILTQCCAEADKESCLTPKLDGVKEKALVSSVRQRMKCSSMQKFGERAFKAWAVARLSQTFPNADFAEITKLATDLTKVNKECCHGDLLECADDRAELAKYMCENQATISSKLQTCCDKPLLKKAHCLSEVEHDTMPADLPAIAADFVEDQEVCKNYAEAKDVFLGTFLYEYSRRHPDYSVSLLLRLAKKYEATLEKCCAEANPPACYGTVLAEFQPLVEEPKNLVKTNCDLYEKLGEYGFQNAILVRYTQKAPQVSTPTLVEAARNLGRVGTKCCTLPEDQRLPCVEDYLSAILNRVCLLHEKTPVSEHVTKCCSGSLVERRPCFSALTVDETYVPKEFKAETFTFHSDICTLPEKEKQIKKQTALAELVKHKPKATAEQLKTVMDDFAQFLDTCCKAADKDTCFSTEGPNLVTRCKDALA

rat serum albumin [3] = molecular target: T3, rat serum albumin (rat, UniProt P02770 25-608); test: BIAcore, pH 7.4, monomeric 6xHis-tagged VNAR
T3 construct: also called RSA
T3 sequence (P02770 25-608 limits assumed): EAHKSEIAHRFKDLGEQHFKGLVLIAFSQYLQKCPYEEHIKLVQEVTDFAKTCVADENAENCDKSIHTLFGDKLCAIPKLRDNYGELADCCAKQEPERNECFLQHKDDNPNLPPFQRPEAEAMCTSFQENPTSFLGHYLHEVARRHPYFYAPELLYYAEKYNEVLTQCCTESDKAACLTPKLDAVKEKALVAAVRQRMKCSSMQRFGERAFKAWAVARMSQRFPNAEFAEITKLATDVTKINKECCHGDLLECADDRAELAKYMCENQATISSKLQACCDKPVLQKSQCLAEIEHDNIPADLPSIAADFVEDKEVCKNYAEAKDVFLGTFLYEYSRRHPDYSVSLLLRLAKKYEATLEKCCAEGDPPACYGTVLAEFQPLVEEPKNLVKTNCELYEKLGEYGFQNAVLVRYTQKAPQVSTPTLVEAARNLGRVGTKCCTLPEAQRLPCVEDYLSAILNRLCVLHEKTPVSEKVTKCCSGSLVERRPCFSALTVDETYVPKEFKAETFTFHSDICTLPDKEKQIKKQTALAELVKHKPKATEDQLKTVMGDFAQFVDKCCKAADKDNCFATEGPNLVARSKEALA

human serum albumin [4] = molecular target: T1, human serum albumin; test: BIAcore, pH 6.0, monomeric 6xHis-tagged VNAR
mouse serum albumin [5] = molecular target: T2, mouse serum albumin; test: BIAcore, pH 6.0, monomeric 6xHis-tagged VNAR
rat serum albumin [6] = molecular target: T3, rat serum albumin; test: BIAcore, pH 6.0, monomeric 6xHis-tagged VNAR
human serum albumin [7] = molecular target: T1, human serum albumin; test: phage and periprep ELISA on HSA; purified 6xHis-tagged VNAR
Method: The resultant mutational phage display libraries were rescued and selected twice using Nunc Maxisorp immunotubes. Following each pan, two 96-well plates of individual colonies were picked with a QPix2 XT (Genetix, San Jose, Calif., USA). Binding as monoclonal phage and periprep was evaluated by ELISA. All samples were processed with a Perkin Elmer MiniTrak robotic liquid handling system (Waltham, Mass., USA).

- Fold change from E06 (human serum albumin [1]): 84.9 fold
- Kd (human serum albumin [1]): 16 nM
- koff (human serum albumin [1]): 0.014 s⁻¹
- kon (human serum albumin [1]): 872000 M⁻¹ s⁻¹
- Fold change from E06 (mouse serum albumin [2]): 59.4 fold
- Kd (mouse serum albumin [2]): 49.2 nM
- koff (mouse serum albumin [2]): 0.0414 s⁻¹
- kon (mouse serum albumin [2]): 841000 M⁻¹ s⁻¹
- Fold change from E06 (rat serum albumin [3]): 52 fold
- Kd (rat serum albumin [3]): 75.3 nM
- koff (rat serum albumin [3]): 0.0329 s⁻¹
- kon (rat serum albumin [3]): 436000 M⁻¹ s⁻¹
- Fold change from E06 (human serum albumin [4]): 35.6 fold
- Kd (human serum albumin [4]): 5.07 nM
- koff (human serum albumin [4]): 0.0184 s⁻¹
- kon (human serum albumin [4]): 3.62e+06 M⁻¹ s⁻¹
- Fold change from E06 (mouse serum albumin [5]): 28.3 fold
- Kd (mouse serum albumin [5]): 9.28 nM
- koff (mouse serum albumin [5]): 0.0318 s⁻¹
- kon (mouse serum albumin [5]): 3.43e+06 M⁻¹ s⁻¹
- Fold change from E06 (rat serum albumin [6]): 29 fold
- Kd (rat serum albumin [6]): 9.94 nM
- koff (rat serum albumin [6]): 0.031 s⁻¹
- kon (rat serum albumin [6]): 3.12e+06 M⁻¹ s⁻¹
B1: huE06 v1.1 (VNAR)
VNAR: TRVDQSPSSLSASVGDRVTITCVLTDTSYPLYSTYWYQQKPGSSNKEQISISGRYSESVNKGTKSFTLTISSLQPEDFATYYCRAMGTNIWTGDGAGTKVEIK
notes: Humanized VNAR, tested as monomeric 6xHis-tagged protein; also called humanized E06 v1.1; not shown: 6xHis tag

- Fold change from E06 (human serum albumin [1]): 33.9 fold
- Kd (human serum albumin [1]): 6.4 nM
- koff (human serum albumin [1]): 0.00357 s⁻¹
- kon (human serum albumin [1]): 559000 M⁻¹ s⁻¹
- Fold change from E06 (mouse serum albumin [2]): 28.1 fold
- Kd (mouse serum albumin [2]): 23.2 nM
- koff (mouse serum albumin [2]): 0.00959 s⁻¹
- kon (mouse serum albumin [2]): 412000 M⁻¹ s⁻¹
- Fold change from E06 (rat serum albumin [3]): 25.4 fold
- Kd (rat serum albumin [3]): 36.8 nM
- koff (rat serum albumin [3]): 0.0165 s⁻¹
- kon (rat serum albumin [3]): 449000 M⁻¹ s⁻¹
- Fold change from E06 (human serum albumin [4]): 12.7 fold
- Kd (human serum albumin [4]): 1.81 nM
- koff (human serum albumin [4]): 0.00637 s⁻¹
- kon (human serum albumin [4]): 3.52e+06 M⁻¹ s⁻¹
- Fold change from E06 (mouse serum albumin [5]): 12.2 fold
- Kd (mouse serum albumin [5]): 3.98 nM
- koff (mouse serum albumin [5]): 0.0125 s⁻¹
- kon (mouse serum albumin [5]): 3.14e+06 M⁻¹ s⁻¹
- Fold change from E06 (rat serum albumin [6]): 12.2 fold
- Kd (rat serum albumin [6]): 4.17 nM
- koff (rat serum albumin [6]): 0.0152 s⁻¹
- kon (rat serum albumin [6]): 3.65e+06 M⁻¹ s⁻¹
B2: huE06 v1.10 (VNAR)
VNAR: TRVDQSPSSLSASVGDRVTITCVLTDTSYPLYSTYWYRKNPGSSNKEQISISGRYSESVNKGTKSFTLTISSLQPEDFATYYCRAMGTNIWTGDGAGTKVEIK
notes: Humanized VNAR, tested as monomeric 6xHis-tagged protein; also called hE06v1.10; humanized E06 v1.10; not shown: 6xHis tag

- binding result (human serum albumin [7]): binds
B3: AH7 (VNAR)
VNAR: TRVDQTPSSLSASVGDRVTITCVLTDTSYPLYSTYWYRKNPGSSNKEQISISGRYSESVNKGTKSSTLTISSLQPEDFATYYCRAMGTNIWTGDGAGTKVEIK
notes: Variant of huE06 v1.10 from error-prone PCR

- binding result (human serum albumin [7]): binds
B4: AD4 (VNAR)
VNAR: TRVDQSPSSLSASVGDRVTITCVLTDTSYPLYSTYWYRKNPGSSNKEQISMSGRYSESVNKSTKSFTLTISSLQPEDFATYYCRAMGTNIWTGDGAGTKVEIK
notes: as for B3

- binding result (human serum albumin [7]): binds
B5: BB11 (VNAR)
VNAR: TRVDQSPSSLSASVGDRVTITCVLTDTSYPLYSTYWYRKNPGSSNKEQISISGRYSESVNKGTKSFTLTISSLQPEDFATYYCRAMATNIWTGDGAGTKVEIK
notes: as for B3

- binding result (human serum albumin [7]): binds
B6: AC9 (VNAR)
VNAR: TRVDQSPSSLSASVGDRVTITCVLTDTSYPLYSTYWYRKNPGSSNKEQISISGRYSESVNKGTKSSTLTISSLQPEDFATYYCRAMGTNIWTGDGAGTKVEIK
notes: as for B3

- binding result (human serum albumin [7]): binds
B7: BA11 (VNAR)
VNAR: TRVDQSPSSLSASVGDRVTITCVLTDTSYPLYSTYWYRKNPGSSNKEQISISGRYSESVNKGTKSFTLTISSLQPEDSATYYCRAMSTNIWTGDGAGTKVEIK
notes: as for B3

- binding result (human serum albumin [7]): binds
B8: BC3 (VNAR)
VNAR: TRVDQSPSSLSASVGDRVTITCVLTDTSYPLYSTYWYRKNPGSNNKEQISISGRYSESVNKGTKSFTLTISSLQPEDFATYYCRAMGTNIWTGDGAGTKVEIK
notes: as for B3

- binding result (human serum albumin [7]): binds
B9: AG11 (VNAR)
chain: TRVDQSPSSLSASVGDRVTITCVLTDTSYPLYSTYWYRKNPGSSNKEQISISGRYSESVNKGTKSFTLTISSLQPEDFATYYCRAMGTNIWTGDGAGTKVETK
notes: as for B3

- binding result (human serum albumin [7]): binds
B10: BB10 (VNAR)
VNAR: TRVDQSPSSLSASVGDRVTITCVLTDTSYPLYSTYWYRKNPGSSNKEQISISGRYSESVNKGTKSFTLTISSLQPEDFATYYCRAMGTNFWTGDGAGTKVEIK
notes: as for B3
